Laboratory results as given in article PMC7308587.

Columns and labels:
[1] = biological target: PpNAGK, recombinant mature N-acetylglutamate kinase (301 residues without cTP) fused to a His-tag (Pinus pinaster (maritime pine))
[2] = biological target: PpPIIa, recombinant mature protein (without the chloroplast transit peptide) (Pinus pinaster (maritime pine)); experiment: SEC; ENrich SEC 650 10 x 300 column (FPLC), 250 uL of protein at 0.6 ug/uL in 25 mM Tris-HCl pH 7.5, 150 mM NaCl, 10% glycerol, room temperature, 0.75 mL/min; calibrated with protein standards; fractions checked by western blot
[3] = biological target: PpPIIb, recombinant mature protein (without the chloroplast transit peptide) (Pinus pinaster (maritime pine)); experiment: as above

Substance | PpNAGK enzyme activity (N-acetylglutamylhydroxamate assay) with increasing amounts of PpPIIa mixed with 0.65 ug PpNAGK [1] [fold] | stoichiometry N [2] | PpNAGK enzyme activity (N-acetylglutamylhydroxamate assay) with increasing amounts of PpPIIb mixed with 0.65 ug PpNAGK [1] [fold] | stoichiometry N [3]
PpPIIa, recombinant mature protein (without the chloroplast transit peptide) (natural protein) | 5 | 3 | – | –
PpPIIb, recombinant mature protein (without the chloroplast transit peptide) (natural protein) | – | – | 5 | 3
